Data from US11357833B2, “Use of lysin to restore/augment antibacterial activity in the presence of pulmonary surfactant of antibiotics inhibited thereby” (priority 2015, dated 2022).
In brackets after ≈: the same amount, converted by molar mass.

Experiments:
[1] = system: S. aureus (MRSA strain ATCC BAA-42); assay: Murine model of S. aureus pneumonia; settings: 14 days; CF-301 i.v., DAP s.c.; once daily
MRSA MW2 [2] = assay: Combination MIC assay in 7.5% surfactant; design: MIC alone / MIC combo: unit not given beside the values; settings: for MIC combo: CF-301 and daptomycin in combination; for MIC alone: single agent
MRSA BAA-1720 = assay: Combination MIC assay in 7.5% surfactant; design: MIC alone / MIC combo: unit not given beside the values; settings: for MIC combo: CF-301 and daptomycin in combination; for MIC alone: single agent
MRSA NRS-192 = assay: Combination MIC assay in 7.5% surfactant; design: MIC alone / MIC combo: unit not given beside the values; settings: for MIC combo: CF-301 and daptomycin in combination; for MIC alone: single agent
MRSA NRS-265 = assay: Combination MIC assay in 7.5% surfactant; design: MIC alone / MIC combo: unit not given beside the values; settings: for MIC combo: CF-301 and daptomycin in combination; for MIC alone: single agent
MRSA NRS-255 = assay: Combination MIC assay in 7.5% surfactant; design: MIC alone / MIC combo: unit not given beside the values; settings: for MIC combo: CF-301 and daptomycin in combination; for MIC alone: single agent
MSSA ATCC 29213 = assay: Combination MIC assay in 7.5% surfactant; design: MIC alone / MIC combo: unit not given beside the values; settings: for MIC combo: CF-301 and daptomycin in combination; for MIC alone: single agent
MSSA NRS-131 = assay: Combination MIC assay in 7.5% surfactant; design: MIC alone / MIC combo: unit not given beside the values; settings: for MIC combo: CF-301 and daptomycin in combination; for MIC alone: single agent
MSSA ATCC 25923 = assay: Combination MIC assay in 7.5% surfactant; design: MIC alone / MIC combo: unit not given beside the values; settings: for MIC combo: CF-301 and daptomycin in combination; for MIC alone: single agent
MSSA ATCC 49521 = assay: Combination MIC assay in 7.5% surfactant; design: MIC alone / MIC combo: unit not given beside the values; settings: for MIC combo: CF-301 and daptomycin in combination; for MIC alone: single agent
MSSA Newman = assay: Combination MIC assay in 7.5% surfactant; design: MIC alone / MIC combo: unit not given beside the values; settings: for MIC combo: CF-301 and daptomycin in combination; for MIC alone: single agent
[3] = system: MRSA, MSSA, and VISA strains of S. aureus; assay: MIC by broth microdilution in increasing surfactant, strains pooled; settings: for Antimicrobial activity in the presence of pulmonary (bovine-derived) surfactant: MRSA, MSSA and VISA strains
[4] = system: methicillin resistant strain (MRSA) MW2; assay: MIC by broth microdilution, with and without bovine-derived surfactant
[5] = system: methicillin-susceptible (MSSA) strain ATCC 29213; assay: as above
[6] = system: 5 strains of MRSA and 5 strains of MSSA; assay: Combination MIC assay in 7.5% surfactant, strains pooled; settings: CF-301 and DAP combined, across strains
MRSA MW2 [7] = assay: BODIPY-labeled daptomycin binding assay, fluorescence microscopy; settings: CF-301 8 μg/ml; BODIPY-DAP 4 μg/ml; 7.5% surfactant
VISA ATCC 700699 = assay: as above; settings: CF-301 4 μg/ml; DAP^BD 4 μg/ml; 30 min; 7.5% surfactant

Molecule	Fold reduction (MIC alone vs combo) (MRSA MW2 [2]) [fold]	MIC combo (MRSA MW2 [2])	MIC alone (MRSA MW2 [2])	Fold reduction (MIC alone vs combo) (MRSA BAA-1720) [fold]	MIC combo (MRSA BAA-1720)	MIC alone (MRSA BAA-1720)	Fold reduction (MIC alone vs combo) (MRSA NRS-192) [fold]	MIC combo (MRSA NRS-192)	MIC alone (MRSA NRS-192)	Fold reduction (MIC alone vs combo) (MRSA NRS-265) [fold]	MIC combo (MRSA NRS-265)	MIC alone (MRSA NRS-265)	Fold reduction (MIC alone vs combo) (MRSA NRS-255) [fold]	MIC combo (MRSA NRS-255)	MIC alone (MRSA NRS-255)	Fold reduction (MIC alone vs combo) (MSSA ATCC 29213) [fold]	MIC combo (MSSA ATCC 29213)	MIC alone (MSSA ATCC 29213)	Fold reduction (MIC alone vs combo) (MSSA NRS-131) [fold]	MIC combo (MSSA NRS-131)	further results
CCCCCCCCCC(=O)N[C@@H](Cc1c[nH]c2ccccc12)C(=O)N[C@H](CC(N)=O)C(=O)N[C@@H](CC(=O)O)C(=O)N[C@@H]1C(=O)NCC(=O)N[C@@H](CCCN)C(=O)N[C@@H](CC(=O)O)C(=O)N[C@H](C)C(=O)N[C@@H](CC(=O)O)C(=O)NCC(=O)N[C@H](CO)C(=O)N[C@@H]([C@H](C)CC(=O)O)C(=O)N[C@@H](CC(=O)c2ccccc2N)C(=O)O[C@@H]1C [DAP, daptomycin, reference compound]	1024	0.25	256	1024	0.25	256	512	0.5	256	1024	0.25	256	1024	0.5	512	512	0.5	256	1024	0.5	Survival pattern, comparison between treatment groups [1]: same survival pattern as those treated with saline; MIC alone (MSSA NRS-131): 512; Fold reduction (MIC alone vs combo) (MSSA ATCC 25923): 512 fold; MIC combo (MSSA ATCC 25923): 0.5; MIC alone (MSSA ATCC 25923): 256; Fold reduction (MIC alone vs combo) (MSSA ATCC 49521): 512 fold; MIC combo (MSSA ATCC 49521): 0.5; MIC alone (MSSA ATCC 49521): 256; Fold reduction (MIC alone vs combo) (MSSA Newman): 512 fold; MIC combo (MSSA Newman): 0.5; MIC alone (MSSA Newman): 256; Antimicrobial activity in the presence of pulmonary (bovine-derived) surfactant [3]: not active; MIC increase ([3]; strain not specified, surfactant concentrations 1.25-15%): 256 fold; MIC ([4]; Staphylococcus aureus, MRSA, 24 h, read-out: Starting MIC (without surfactant)): 1 µg/mL (≈ 0.617 µM); MIC ([5]; Staphylococcus aureus, ATCC29213|MSSA, 24 h, read-out: Starting MIC (without surfactant)): 1 µg/mL (≈ 0.617 µM)
CF-301: Bacteriophage lysin polypeptide, SEQ ID NO: 1 (GenBank accession ZP 03625529), antimicrobial agent against Staphylococcus aureus (protein, listed as Streptococcus suis) MTTVNEALNNVRAQVGSGVSVGNGECYALASWYERMISPDATVGLGAGVGWVSGAIGDTISAKNIGSSYNWQANGWTVSTSGPFKAGQIVTLGATPGNPYGHVVIVEAVDGDRLTILEQNYGGKRYPVRNYYSAASYRQQVVHYITPPGTVAQSAPNLAGSRSYRETGTMTVTVDALNVRRAPNTSGEIVAVYKRGESFDYDTVIIDVNGYVWVSYIGGSGKRNYVATGATKDGKRFGNAWGTFK	32	2	64	32	2	64	16	4	64	16	4	64	16	2	64	32	4	128	16	4	MIC alone (MSSA NRS-131): 64; Fold reduction (MIC alone vs combo) (MSSA ATCC 25923): 32 fold; MIC combo (MSSA ATCC 25923): 4; MIC alone (MSSA ATCC 25923): 128; Fold reduction (MIC alone vs combo) (MSSA ATCC 49521): 32 fold; MIC combo (MSSA ATCC 49521): 2; MIC alone (MSSA ATCC 49521): 64; Fold reduction (MIC alone vs combo) (MSSA Newman): 32 fold; MIC combo (MSSA Newman): 4; MIC alone (MSSA Newman): 128; Growth inhibitory concentration lower in combination than as single agent (MIC reduction) [6]: 16-32 fold; BODIPY-DAP (DAP^BD) binding to MRSA (MRSA MW2 [7]): promotes; DAP^BD binding to VISA (VISA ATCC 700699): promotes; Antimicrobial activity in the presence of pulmonary (bovine-derived) surfactant [3]: active; MIC increase ([4]; MRSA strain, surfactant concentrations 1.25-15%): up to 2 fold; Starting MIC (without surfactant) ([4]; MW2, no surfactant, 24 hours at 35° C.): 32 µg/mL; Starting MIC (without surfactant) ([5]; ATCC 29213, no surfactant, 24 hours at 35° C.): 16 µg/mL; MIC increase ([5]; MSSA strain, surfactant concentrations 1.25-15%): up to 2 fold
